What was measured:
[1] = biological target: T1, FLAG-tagged ZNF224 (ZNF224-FLAG), pCAGGSc-ZNF224-FLAG (human, UniProt Q9NZL3 1-707); experiment: co-IP with anti-HA rat antibody from co-transfected Cos7 cells
T1 construct: Whole open reading frame of ZNF224 in frame with a C-terminal FLAG-tag, expressed in UM-UC-3 or COS7 cells; also called exogenous ZNF224; not shown: C-terminal FLAG-tag from the pCAGGScFLAG vector
Experimental: (§1) To confirm the interaction between DEPDC1 and ZNF224 in bladder cancer cells and identify the ZNF224-binding region in DEPDC1, the immunoprecipitation experiment was carried out as follows. First, it was confirmed interaction between endogenous DEPDC1 and exogenous ZNF224 by immunoprecipitation experiments using anti-DEPDC1 polyclonal antibody for immunoprecipitation and anti-FLAGM2 antibody (Amersham) for immunoblotting. To further determine the ZNF224-binding region in DEPDC1, it was cloned six partial constructs of DEPDC1 (DEPDC1₁₋₁₄₇, DEPDC1₁₄₁₋₃₀₀, DEPDC1₁₇₇₋₅₉₇, DEPDC1₃₀₀₋₆₆₉, DEPDC1₅₈₇₋₇₄₀ and DEPDC1₆₅₄₋₈₁₁) into appropriate sites of COOH-terminal HA-tagged pCAGGS vector. The nucleotide sequence of each clones were determined with an ABI Prism 3700 DNA sequencer (Applied Biosystems, Foster City, Calif.), using each primer. Cell extracts from Cos7 cell line, transfected with each of plasmids expressing one of these six partial segments of DEPDC1, were precleared by incubation at 4 degrees C. for 1 hour with 100 micro 1 of protein G-agarose beads in final volumes of 2 mL of immunoprecipitation buffer (0.5% NP40, 50 mmol/L Tris-HCl, 150 mmol/L NaCl) in the presence of proteinase inhibitor. After centrifugation at 1,000 rpm for 5 minutes at 4 degrees C., the supernatants were incubated at 4 degrees C. with anti-HA rat for 1 hours. […]

[2] = biological target: T1, FLAG-tagged ZNF224 (ZNF224-FLAG), …; experiment: co-IP with anti-HA antibody from co-transfected Cos7 cells
Experimental: as §1

T1 sequence (Q9NZL3 whole entry M118V/H562R): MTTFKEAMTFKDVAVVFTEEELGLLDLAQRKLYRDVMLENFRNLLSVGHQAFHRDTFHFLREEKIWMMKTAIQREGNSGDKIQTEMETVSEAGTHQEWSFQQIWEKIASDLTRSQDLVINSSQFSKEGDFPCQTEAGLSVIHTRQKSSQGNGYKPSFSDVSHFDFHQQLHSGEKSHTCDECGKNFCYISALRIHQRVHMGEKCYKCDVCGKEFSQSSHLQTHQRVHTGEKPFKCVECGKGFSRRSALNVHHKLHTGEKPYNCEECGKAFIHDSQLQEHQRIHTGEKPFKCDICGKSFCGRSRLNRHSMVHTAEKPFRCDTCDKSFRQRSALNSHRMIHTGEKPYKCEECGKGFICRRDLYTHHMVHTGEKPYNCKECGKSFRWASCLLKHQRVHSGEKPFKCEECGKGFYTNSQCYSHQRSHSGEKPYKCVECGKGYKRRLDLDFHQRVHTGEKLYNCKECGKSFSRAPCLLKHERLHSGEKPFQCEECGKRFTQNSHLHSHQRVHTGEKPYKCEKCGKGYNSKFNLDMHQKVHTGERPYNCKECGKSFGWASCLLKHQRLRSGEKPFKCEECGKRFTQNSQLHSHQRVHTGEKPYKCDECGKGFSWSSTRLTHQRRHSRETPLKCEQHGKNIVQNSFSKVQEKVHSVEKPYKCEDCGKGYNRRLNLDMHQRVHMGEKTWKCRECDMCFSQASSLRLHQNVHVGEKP

B1: DEPDC1 300-669, COOH-terminal HA-tagged partial construct (other)
chain: VNILVVCGYITVSDRSSGIHKIQDDPQSSKFLHLNNLNSFKSTECLLLSLLHREKNKEESDSTERLQISNPGFQERCAKKMQLVNLRNRRVSANDIMGGSCHNLIGLSNMHDLSSNSKPRCCSLEGIVDVPGNSSKEASSVFHQSFPNIEGQNNKLFLESKPKQEFLLNLHSEENIQKPFSAGFKRTSTLTVQDQEELCNGKCKSKQLCRSQSLLLRSSTRRNSYINTPVAEIIMKPNVGQGSTSVQTAMESELGESSATINKRLCKSTIELSENSLLPASSMLTGTQSLLQPHLERVAIDALQLCCLLLPPPNRRKLQLLMRMISRMSQNVDMPKLHDAMGTRSLMIHTFSRCVLCCAEEVDLDELLAG
notes: The forward primer carries an added ACCATG, so an extra start Met may precede residue 300; not shown: C-terminal HA-tag from pCAGGScHA vector
**Q.** Does B1 bind [1]?
**A.** binds

B2: DEPDC1 587-740, COOH-terminal HA-tagged partial construct (other)
chain: QSLLQPHLERVAIDALQLCCLLLPPPNRRKLQLLMRMISRMSQNVDMPKLHDAMGTRSLMIHTFSRCVLCCAEEVDLDELLAGRLVSFLMDHHQEILQVPSYLQTAVEKHLDYLKKGHIENPGDGLFAPLPTYSYCKQISAQEFDEQKVSTSQA
notes: The forward primer carries an added ACCATG, so an extra start Met may precede residue 587; not shown: C-terminal HA-tag from pCAGGScHA vector
**Q.** Does B2 bind [1]?
**A.** binds

B3: DEPDC1 1-147, COOH-terminal HA-tagged partial construct (other)
chain: MESQGVPPGPYRATKLWNEVTTSFRAGMPLRKHRQHFKKYGNCFTAGEAVDWLYDLLRNNSNFGPEVTRQQTIQLLRKFLKNHVIEDIKGRWGSENVDDNNQLFRFPATSPLKTLPRRYPELRKNNIENFSKDKDSIFKLRNLSRRT
notes: not shown: C-terminal HA-tag from pCAGGScHA vector
**Q.** Does B3 bind [2]?
**A.** no binding

B4: DEPDC1 177-597, COOH-terminal HA-tagged partial construct (other)
chain: DNRELSQEDVEEVWRYVILIYLQTILGVPSLEEVINPKQVIPQYIMYNMANTSKRGVVILQNKSDDLPHWVLSAMKCLANWPRSNDMNNPTYVGFERDVFRTIADYFLDLPEPLLTFEYYELFVNILVVCGYITVSDRSSGIHKIQDDPQSSKFLHLNNLNSFKSTECLLLSLLHREKNKEESDSTERLQISNPGFQERCAKKMQLVNLRNRRVSANDIMGGSCHNLIGLSNMHDLSSNSKPRCCSLEGIVDVPGNSSKEASSVFHQSFPNIEGQNNKLFLESKPKQEFLLNLHSEENIQKPFSAGFKRTSTLTVQDQEELCNGKCKSKQLCRSQSLLLRSSTRRNSYINTPVAEIIMKPNVGQGSTSVQTAMESELGESSATINKRLCKSTIELSENSLLPASSMLTGTQSLLQPHLERV
notes: as for B3
**Q.** Does B4 bind [2]?
**A.** no binding
